Target: complement component C1q
Test: SPR

B1: soluble SCARF1 protein (receptor)
chain: SELDPKGQHVCVASSPSAELQCCAGWRQKDQECTIPICEGPDACQKDEVCVKPGLCRCKPGFFGAHCSSRCPGQYWGPDCRESCPCHPHGQCEPATGACQCQADRWGARCEFPCACGPHGRCDPATGVCHCEPGWWSSTCRRPCQCNTAAARCEQATGACVCKPGWWGRRCSFRCNCHGSPCEQDSGRCACRPGWWGPECQQQCECVRGRCSAASGECTCPPGFRGARCELPCPAGSHGVQCAHSCGRCKHNEPCSPDTGSCESCEPGWNGTQCQQPCLPGTFGESCEQQCPHCRHGEACEPDTGHCQRCDPGWLGPRCEDPCPTGTFGEDCGSTCPTCVQGSCDTVTGDCVCSAGYWGPSCNASCPAGFHGNNCSVPCECPEGLCHPVSGSCQPGSGSRDT
Question: B1 was tested. Which Kd did it give?
Answer: 124 nM
